This is an account of results in patent US20050282743A1, “Molecular interactions in cells” (Arbor Vita Corporation, priority 2001, published 2005).

Test in all cases: G' assay
Assay [1] concerns the target T1, GST-AIPC PDZ domain 1 (Homo sapiens (Human)), O15018.
T1 chain: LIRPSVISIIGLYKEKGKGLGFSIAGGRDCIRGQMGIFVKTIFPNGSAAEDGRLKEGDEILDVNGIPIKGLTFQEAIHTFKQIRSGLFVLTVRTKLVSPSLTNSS

The target in assay [2] is T2, GST-DVL2 PDZ domain 1 (Homo sapiens (Human)), O14641.
T2 chain: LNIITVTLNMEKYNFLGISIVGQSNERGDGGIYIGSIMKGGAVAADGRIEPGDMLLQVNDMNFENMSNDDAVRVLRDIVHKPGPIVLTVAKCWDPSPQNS

Assay [3] concerns the target T3, GST-FLJ 10324 PDZ domain 1 [GST: P08515].
T3 chain: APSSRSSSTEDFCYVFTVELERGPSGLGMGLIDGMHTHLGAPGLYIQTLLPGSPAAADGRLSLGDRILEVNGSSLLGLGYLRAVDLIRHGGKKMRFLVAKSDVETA

Assay [4] addresses T4, GST-HEMBA 1003117 PDZ domain 1 (Homo sapiens (Human)), Q96JH8.
T4 chain: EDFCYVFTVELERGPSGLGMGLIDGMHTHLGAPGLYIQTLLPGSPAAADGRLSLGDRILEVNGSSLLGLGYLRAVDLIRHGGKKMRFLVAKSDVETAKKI

Assay [5] addresses T5, GST-KIAA0382 PDZ domain 1 (Canis lupus familiaris (Dog) (Canis familiaris)), A0A8I3.
T5 chain: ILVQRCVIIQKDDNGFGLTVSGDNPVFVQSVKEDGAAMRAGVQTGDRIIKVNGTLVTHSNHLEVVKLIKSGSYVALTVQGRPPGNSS

Assay [6] addresses T6, GST-KIAA0807(S) PDZ domain 1 (Homo sapiens (Human)), Q6P0Q8.
T6 chain: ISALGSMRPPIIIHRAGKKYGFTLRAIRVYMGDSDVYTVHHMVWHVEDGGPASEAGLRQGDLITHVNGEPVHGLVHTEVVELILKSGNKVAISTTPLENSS

Assay [7] addresses GST-KIAA1222 PDZ domain 1 (Rattus norvegicus (Rat)), O35867.
The target in assay [8] is GST-KIAA807 [GST: P08515].
Assay [9] concerns the target T7, GST-MINT1 PDZ domain 1 (Mus musculus (Mouse)), B2RUJ5.
T7 chain: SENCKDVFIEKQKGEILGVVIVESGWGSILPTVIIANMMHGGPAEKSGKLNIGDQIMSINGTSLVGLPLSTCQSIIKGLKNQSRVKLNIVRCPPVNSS

Assay [10] has as its target T8, GST-MINT1 PDZ domain 2 (Mus musculus (Mouse)), B2RUJ5.
T8 chain: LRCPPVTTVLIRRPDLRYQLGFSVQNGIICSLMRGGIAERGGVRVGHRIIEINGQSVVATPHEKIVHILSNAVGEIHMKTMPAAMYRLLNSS

For assay [11], the target named is T9, GST-MINT1 PDZ domains 1, 2, Q02410.
T9 chain: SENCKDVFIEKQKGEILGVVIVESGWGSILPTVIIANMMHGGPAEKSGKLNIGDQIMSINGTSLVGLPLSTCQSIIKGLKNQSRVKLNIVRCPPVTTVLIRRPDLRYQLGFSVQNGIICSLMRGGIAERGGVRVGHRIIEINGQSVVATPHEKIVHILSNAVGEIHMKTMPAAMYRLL

The target of assay [12] is T10, GST-MUPP1 PDZ domain 11 (Homo sapiens (Human)), O75970.
T10 chain: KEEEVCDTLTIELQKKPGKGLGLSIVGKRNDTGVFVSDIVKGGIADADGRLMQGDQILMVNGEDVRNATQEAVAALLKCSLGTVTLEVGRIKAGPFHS

The target of assay [13] is T11, GST-MUPP1 PDZ domain 2 (Homo sapiens (Human)), O75970.
T11 chain: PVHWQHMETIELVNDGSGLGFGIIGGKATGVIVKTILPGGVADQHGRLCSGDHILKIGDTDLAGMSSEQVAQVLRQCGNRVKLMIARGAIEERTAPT

In assay [14] the target is T12, GST-MUPP1 PDZ domain 3 (Homo sapiens (Human)), O75970.
T12 chain: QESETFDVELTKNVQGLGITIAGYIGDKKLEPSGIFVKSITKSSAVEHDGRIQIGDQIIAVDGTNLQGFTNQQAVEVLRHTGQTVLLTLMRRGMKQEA

The target in assay [15] is T13, GST-MUPP1 PDZ domain 7 (Homo sapiens (Human)), O75970.
T13 chain: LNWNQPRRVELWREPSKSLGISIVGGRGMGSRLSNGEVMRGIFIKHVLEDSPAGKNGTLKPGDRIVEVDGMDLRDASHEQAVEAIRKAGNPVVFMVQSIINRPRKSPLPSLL

For assay [16], the target named is T14, GST-MUPP1 PDZ domain 9 (Homo sapiens (Human)), O75970.
T14 chain: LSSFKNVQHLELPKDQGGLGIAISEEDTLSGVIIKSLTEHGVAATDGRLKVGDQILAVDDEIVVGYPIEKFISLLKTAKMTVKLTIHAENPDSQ

Assay [17] has as its target GST-PAR3 PDZ domain 3 (Homo sapiens (Human)), Q8TEW0.
For assay [18], the target named is T15, GST-PTPL1 PDZ domain 4 (Homo sapiens (Human)), Q12923.
T15 chain: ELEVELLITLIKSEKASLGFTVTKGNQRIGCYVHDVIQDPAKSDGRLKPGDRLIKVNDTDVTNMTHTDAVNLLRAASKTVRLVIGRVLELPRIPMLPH

Assay [19] concerns the target T16, GST-SYNTENIN PDZ domain 1 (Homo sapiens (Human)), O00560.
T16 chain: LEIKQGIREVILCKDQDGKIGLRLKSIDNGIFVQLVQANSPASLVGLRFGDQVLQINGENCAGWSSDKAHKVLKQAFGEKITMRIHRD

Assay [20] has as its target T17, GST-ZO-3 PDZ domain 3 (Homo sapiens (Human)), O95049.
T17 chain: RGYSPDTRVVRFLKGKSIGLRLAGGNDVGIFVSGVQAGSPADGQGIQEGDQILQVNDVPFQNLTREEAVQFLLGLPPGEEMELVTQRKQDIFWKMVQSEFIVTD

Assay [21] deals with T18, GST-APXL-1 PDZ domain 1 (Homo sapiens (Human)), Q13796.
T18 chain: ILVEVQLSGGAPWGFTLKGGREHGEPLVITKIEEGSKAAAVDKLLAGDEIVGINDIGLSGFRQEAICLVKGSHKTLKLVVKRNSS

Assay [22] addresses GST-BAI-1 Associated Protein PDZ domain 2 (Mus musculus (Mouse)), Q6RHR9.
In assay [23] the target is T19, GST-GRIP 1 PDZ domain 6 (Mus musculus (Mouse)), Q925T6.
T19 chain: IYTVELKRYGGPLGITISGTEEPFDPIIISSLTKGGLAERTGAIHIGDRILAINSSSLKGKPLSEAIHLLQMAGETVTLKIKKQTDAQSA

Assay [24] addresses T20, GST-KIAA0973 PDZ domain 1 (Homo sapiens (Human)), Q9Y2H9.
T20 chain: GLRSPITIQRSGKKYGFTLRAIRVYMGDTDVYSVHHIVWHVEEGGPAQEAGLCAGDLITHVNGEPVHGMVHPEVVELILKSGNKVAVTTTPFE

In assay [25] the target is GST-KIAA1634 PDZ domain 1 (Homo sapiens (Human)), Q5TCQ9.
The target of assay [26] is T21, GST-KIAA1719 PDZ domain 3 (Homo sapiens (Human)), Q9C0E4.
T21 chain: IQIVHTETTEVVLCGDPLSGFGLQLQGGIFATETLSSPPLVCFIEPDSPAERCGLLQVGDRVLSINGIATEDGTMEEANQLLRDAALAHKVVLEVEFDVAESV

Assay [27] deals with T22, GST-KIAA1719 PDZ domain 6 (Homo sapiens (Human)), Q9C0E4.
T22 chain: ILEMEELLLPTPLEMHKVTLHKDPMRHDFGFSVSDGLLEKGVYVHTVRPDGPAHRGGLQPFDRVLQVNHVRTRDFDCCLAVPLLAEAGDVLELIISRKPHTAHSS

In assay [28] the target is T23, GST-Shank 1 PDZ domain 1 (Homo sapiens (Human)), Q9UPX8.
T23 chain: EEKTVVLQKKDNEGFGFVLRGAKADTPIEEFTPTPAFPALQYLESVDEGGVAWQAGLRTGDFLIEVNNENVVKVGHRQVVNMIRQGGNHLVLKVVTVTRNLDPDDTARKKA

Assay [29] concerns the target T24, GST-X-11 beta PDZ domain 2 (Rattus norvegicus (Rat)), O35431.
T24 chain: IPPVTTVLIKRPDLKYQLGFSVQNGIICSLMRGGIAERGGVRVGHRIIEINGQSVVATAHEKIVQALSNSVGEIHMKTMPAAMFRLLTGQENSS

In assay [30] the target is GST-BAI-1 Associated Protein PDZ domain 4 (Homo sapiens (Human)), Q96QZ7.
The target in assay [31] is T25, GST-KIAA0303 PDZ domain 1 (Homo sapiens (Human)), O15021.
T25 chain: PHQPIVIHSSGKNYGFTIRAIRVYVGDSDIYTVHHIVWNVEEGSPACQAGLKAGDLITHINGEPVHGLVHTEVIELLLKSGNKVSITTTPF

Assay [32] deals with GST-PSD95 PDZ domains 1, 2, 3 (Homo sapiens), P78352.
For assay [33], the target named is T26, GST-TIP1 PDZ domain 1 (Table 9 insert) (Homo sapiens (Human)), O14907.
T26 chain: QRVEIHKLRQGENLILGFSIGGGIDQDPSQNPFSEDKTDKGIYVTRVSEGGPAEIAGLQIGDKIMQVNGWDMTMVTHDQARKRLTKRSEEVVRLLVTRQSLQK
Further: key of the grades not given here.

Chain of GST-BAI-1 Associated Protein PDZ domain 2 (Mus musculus (Mouse)), Q6RHR9 (Q6RHR9 455-558): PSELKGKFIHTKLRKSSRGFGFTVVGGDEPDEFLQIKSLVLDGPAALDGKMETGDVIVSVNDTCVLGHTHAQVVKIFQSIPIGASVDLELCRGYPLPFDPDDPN
Chain of GST-KIAA807 [GST: P08515] (P08515 whole entry, the tested form may be a part): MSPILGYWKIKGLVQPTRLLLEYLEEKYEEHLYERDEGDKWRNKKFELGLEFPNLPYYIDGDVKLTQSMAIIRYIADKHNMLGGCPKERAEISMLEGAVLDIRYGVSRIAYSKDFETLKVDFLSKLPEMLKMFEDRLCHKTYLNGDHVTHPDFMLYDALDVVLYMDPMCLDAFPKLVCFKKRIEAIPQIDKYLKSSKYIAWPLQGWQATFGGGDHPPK
Chain of GST-PSD95 PDZ domains 1, 2, 3 (Homo sapiens), P78352 (P78352 62-395): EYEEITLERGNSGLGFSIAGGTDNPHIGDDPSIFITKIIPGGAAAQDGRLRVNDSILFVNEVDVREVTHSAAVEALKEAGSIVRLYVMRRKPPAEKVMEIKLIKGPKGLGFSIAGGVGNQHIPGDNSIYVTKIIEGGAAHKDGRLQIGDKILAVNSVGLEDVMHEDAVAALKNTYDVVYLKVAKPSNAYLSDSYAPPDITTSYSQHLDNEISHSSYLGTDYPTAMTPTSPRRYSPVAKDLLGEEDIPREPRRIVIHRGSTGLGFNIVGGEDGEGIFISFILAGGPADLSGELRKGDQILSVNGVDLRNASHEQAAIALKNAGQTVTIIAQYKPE
Chain of GST-KIAA1222 PDZ domain 1 (Rattus norvegicus (Rat)), O35867 (O35867 499-598, tags or fused parts left off): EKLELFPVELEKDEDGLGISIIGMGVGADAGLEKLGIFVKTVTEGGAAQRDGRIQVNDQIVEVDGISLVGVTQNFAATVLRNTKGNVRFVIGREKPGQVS
Chain of GST-BAI-1 Associated Protein PDZ domain 4 (Homo sapiens (Human)), Q96QZ7 (Q96QZ7 other isoform, or with tags, fused parts or gaps): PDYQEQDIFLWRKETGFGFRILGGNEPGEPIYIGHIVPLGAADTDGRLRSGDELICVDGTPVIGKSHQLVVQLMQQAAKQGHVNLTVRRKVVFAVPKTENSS
Chain of GST-PAR3 PDZ domain 3 (Homo sapiens (Human)), Q8TEW0 (Q8TEW0 579-681): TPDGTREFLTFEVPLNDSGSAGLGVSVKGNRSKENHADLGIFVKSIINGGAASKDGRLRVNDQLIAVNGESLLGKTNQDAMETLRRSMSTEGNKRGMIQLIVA
Chain of GST-KIAA1634 PDZ domain 1 (Homo sapiens (Human)), Q5TCQ9 (Q5TCQ9 401-502): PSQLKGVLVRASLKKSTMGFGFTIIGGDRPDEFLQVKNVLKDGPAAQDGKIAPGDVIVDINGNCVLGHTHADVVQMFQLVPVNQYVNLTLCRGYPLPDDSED

For the molecule KTMPAAMFRLLTGQETPLYI (modifications not checked) [MINT-2], the Classification turned out to be 1 A450 class in assay [1]; 2 A450 class in assay [2]; 4 A450 class in assay [3]; 3 A450 class in assay [4]; 1 A450 class in assay [5]; 4 A450 class in [6]. The Classification in assay [7] was determined as 1 A450 class; in assay [8], 3 A450 class; in assay [9] it was 2 A450 class; in assay [10], 1 A450 class; in assay [11] it was 5 A450 class; in assay [12] it was 5 A450 class. For the same molecule, the Classification was 1 A450 class in assay [13]; 1 A450 class in assay [14]; 1 A450 class in assay [15]; 1 A450 class in assay [16]; 5 A450 class in [17]; 4 A450 class in [18]. The results for the Classification in [19] and in [20] were 2 A450 class and 1 A450 class, respectively.

In the case of ALVLIAFCIIRRRPSAYQAL (modifications not checked) [CD68], the Classification in assay [21] worked out at 2 A450 class; in assay [22] it was 3 A450 class; in assay [2], 2 A450 class; in assay [3] it was 1 A450 class; in [23] it was 1 A450 class; in [6], 5 A450 class. Besides, the Classification was found to be 1 A450 class in [24]; 2 A450 class in assay [25]; 1 A450 class in [26]; 1 A450 class in [27]; 2 A450 class in [10]; 1 A450 class in assay [11]. Moreover, the Classification in assay [28] and in assay [29] was 1 A450 class in each case.

On to QDFRRAFRRILARPWTQTAW (modifications not checked) [alpha-2B Adrenergic receptor], for which the Classification came out at 4 A450 class in [22]; 5 A450 class in assay [30]; 4 A450 class in [31]; 4 A450 class in assay [8]; 5 A450 class in assay [32]; 5 A450 class in assay [33].
